Reference: the DeepSol protein solubility set

Assay: soluble on expression in E. coli; label from the status in PepcDB or PDB records

Sequence | soluble on expression in E. coli
MSAATPLIVQQAEAEQLLARIDVLQAMRQLFLDLAAGQALQPAQQLVEFPAGRGDFINYLGVLAQEQVYGVKTSPYIVREQGPLVTAWTLLMSMQTGQPLLLCDAARLTTARTAATTAVAVDALAPAEACRLALIGSGPVAHAHLQYVKGLRDWQGVRVHSPCLDERRLQSLRAIDPRAEAAGSLEEALDEADVILLCTSSARAVIDPRQLKRPALVTSISTNAPRAHEVPAESLAAMDVYCDYRHTTPGSAGEMLIAAEQHGWSPEAIRGDLAELLSAQAPRPEYRRPAFFRSIGLGLEDVALANALYRLRQAG | not soluble
MQFPVLQESSQSALPQLTGILSSLIVTEEVKAAETDAIMAANTGKSEIVQVTYKLFGLIPFKSSAIQVMPQLKLLPGGQSIGVSLQAKGVMVVGQAAVQNQEGKLVYPAKEAGIEVGDIILKIDGREMNSDQDVANAIHRAGEKQGFSEILLNHNGQTMQKRVSTVYCPETNRHRVGLYVRNEAAGVGTLTFYDPTNHKYGALGHVINDVDTNQKIEILNGNVVASTIYAIEKGKRGHPGEKIGSFVNQSKFSGNIEKNTVSGIFGSLEGEIKNPYFQEPITVGWESEIKEGPAKIYTVLEGERIEEYDVQIERIMHNRTDSKNMVIKVTDPELVEKTGGIIQGMSGSPIVQDGKIIGAVTHVFVNDASRGYGVFIQNMLKDADIIDKKEVALEHHHHHH | not soluble
MITIITQDQLKTSPSVREDGRAFDELRPLKIEAGILERADGSSYLEFGGNKILVAVYGPREAQIRKLQRPDRAVIRCRYNMAPFSVEERKRPGPDRRSVEISKITAEALRPALILEKFPRSVIDVFIEVLEAEGGTRCAGITAASVALADAGIPMRDMVVACAAGKVGDQVVLDLSEEEDKEGQADVPVAILPRTREITLLQSDGNLTPEEFERALDLAVEGCLRIHEVQKEALRKRYGE | soluble
MSLGCDSILSIDIGTTRIKAGLVDCNTLEITGRGSVSTPVSYPRKGWSEQDPEELWQAIVRASSAALEGFEASRVSGVIFSTYLAGVVLLDRDNYELTPIITWLDERAHGLPRELFSGVLKVSGYNLLHLVDLLRLTGGAPSKTGKDPLSKMVWLRENKPDLFTKAHTIGTLKTWVLAKTAEARLVSPDDAHLTWLADTRGGRAVWSPRLARRYGIPLEKLPGIAGPTDVAGGLVSSAARDLGLPQGIPVIVGAGDIASSAVGSGALAAGEYHIYVGTSSWIGVHSTRRLLDVRHYIGSLLSAKPGEYLVIGEQEIAGGMIDWILDVTGMDYRAVEDIHSIPPGSEGLIATPWLYGERTPIDDPHAKGVLVGLTLRHTKKHLVRAAVEGVALNIAWAMEHMTRLAGKPKLVRGVGGGFRLRTLAKVIASALNATIETVSQPEMAGVRGAGALAAAALKGSSIESEAGKIPVSWRAEADSNASKAYKDLLQIYQEIYSRLKSVFRRLSEGHHHHHH | not soluble
MHNLANLYRTGWPGGVEKDTQKALDLYQKMIDLDVPQGFYDMGAMIGNRAGVKNPATDGLTFLDKAASLGNPPALTELGKFYIYVAKKKDLGLAYTHCAASQGYAPASYELGAYYKIVEHNFPKALVYYQVSVSQGGKSAAFFLSRVFGSETPPASAMWYAPDEKLREAYYSIYKKLEADPLEHHHHHH | not soluble
MSLAAFQIANKTVGKDAPVFIIAEAGINHDGKLDQAFALIDAAAEAGADAVKFQMFQADRMYQKDPGLYKTAAGKDVSIFSLVQSMEMPAEWILPLLDYCREKQVIFLSTVCDEGSADLLQSTSPSAFKIASYEINHLPLLKYVARLNRPMIFSTAGAEISDVHEAWRTIRAEGNNQIAIMHCVAKYPAPPEYSNLSVIPMLAAAFPEAVIGFSDHSEHPTEAPCAAVRLGAKLIEKHFTIDKNLPGADHSFALNPDELKEMVDGIRKTEAELKQGITKPVSEKLLGSSYKTTTAIEGEIRNFAYRGIFTTAPIQKGEAFSEDNIAVLRPGQKPQGLHPRFFELLTSGVRAVRDIPADTGIVWDDILLKDSPFHEEGGSHHHHHH | soluble
MSLNVLHVASECNPFFKTGGLADVLGSLPKALIKQGINVSVILPKYGHLSDEWQNQLTLKKSFTVSVTWRNQYCGLEQFVDQGVTYYFIDNEYYFKRERLYGYLDEAERFTFFNHAVLSSLPFLDESPDLIHCHDWQSGLIPAYMKTGSVENPVPTVFTIHNLRYQGAFPPDVFRELLHFAPEHFAGLEMDGAINFLKGALVHSDRVTTVSPTYAQEIQTPAFGEGLHGLLHQERGKTRGILNGIDLEDFDPKTDPHVTYPYKHNQMEKRKNKQVIQRLFELPERKDIPLIAMVSRLVEEKGVPLLTQIAGELVTTENVQLAILGTGDPSLEDQLHHLASLHPHQISFKCVFAEPLARKLYAGADLFIMPSRFEPCGLSQMISLRYETVPIVRETGGLYDTIQSYNEEIGEGNGFSFTHYNAHDFLYTIKRALRFYRTEKEWENLLLNIYSSEVGWDVSAKQYTALYEEILGKRKVEAEGHHHHHH | not soluble
